# Measured values published in the Human Domainome abundance scans (Beltran et al. 2025).
# ± gives the uncertainty stated by the source.
# B1: SWI/SNF complex subunit SMARCC1, residues 620 to 663; numbered along this chain, Q92922 (parent)
# chain: GREWTEQETLLLLEALEMYKDDWNKVSEHVGSRTQDECILHFLR
# Variants of: B1
# Experiment: abundance fitness (aPCA) (normalised: wild type 0, dead -1); higher = more abundant; growth selection in yeast, the domain comes from the species named
# Settings: Homo sapiens
row,Variant,abundance fitness
1,GREWTEQETLLLLEALEMYKDDWNKVSEHVGSRTQDECIAHFLR [L40A],0.28 ± 0.066
2,GREWTEQETLLLLEALEMYKDDWNKVSEHVGSRTQDECIEHFLR [L40E],0.122 ± 0.1
3,GREWTEQETLLLLEALEMYKDDWNKVSEHVGSRTQDECICHFLR [L40C],0.108 ± 0.09
4,GREWTEQETLLLLEALEMYKDDWNKVSEHVGSRTQDECIDHFLR [L40D],0.319 ± 0.058
5,GREWTEQETLLLLEALEMYKDDWNKVSEHVGSRTQDECIGHFLR [L40G],0.049 ± 0.089
6,GREWTEQETLLLLEALEMYKDDWNKVSEHVGSRTQDECIFHFLR [L40F],-0.074 ± 0.074
7,GREWTEQETLLLLEALEMYKDDWNKVSEHVGSRFQDECILHFLR [T34F],-0.783 ± 0.36
8,GREWTEQETLLLLEALEMYKDDWNKVSEHVGSRVQDECILHFLR [T34V],-0.119 ± 0.18
9,GREWTEQETLLLLEALEMYKDDWNKVSEHVGSRDQDECILHFLR [T34D],-0.036 ± 0.23
10,GREWTEQETLLLLEALEMYKDDWNKVSEHVGSRLQDECILHFLR [T34L],-0.257 ± 0.097
11,GREWTEQETLLLLEALEMYKDDWNKVSEHVGSRIQDECILHFLR [T34I],-0.4 ± 0.36
12,GREWTEQETLLLLEALEMYKDDWNKVSEHVGSRKQDECILHFLR [T34K],0.165 ± 0.086
13,GREWTEQETLLLLEALEMYKDDWNKVSEHVGSREQDECILHFLR [T34E],0.314 ± 0.22
14,GREWTEQETLLLLEALEMYKDDWNKVSEHVGSRGQDECILHFLR [T34G],0.03 ± 0.12
15,GREWTEQETLLLLEALEMYKDDWNKVSEHVGSRWQDECILHFLR [T34W],-0.416 ± 0.13
16,GREWTEQETLLLLEALEMYKDDWNKVSEHVGSRRQDECILHFLR [T34R],0.137 ± 0.084
17,GREWTEQETLLLLEALEMYKDDWNKVSEHVGSRPQDECILHFLR [T34P],-0.222 ± 0.25
18,GREWTEQETLLLLEALEMYKDDWNKVSEHVGSRYQDECILHFLR [T34Y],-0.715 ± 0.3
19,GREWTEQETLLLLEALEMYKDDWNKVSEHVGSRQQDECILHFLR [T34Q],0.199 ± 0.14
20,GREWTEQETLLLLEALEMYKDDWNKVSEHVGSRNQDECILHFLR [T34N],0.075 ± 0.082

row,Variant,abundance fitness
1,GREWTEQETLLLLEALEMYKDDWNKVSEHVGSRTQDECQLHFLR [I39Q],0.238 ± 0.062
2,GREWTEQETLLLLEALEMYKDDWNKVSEHVGSRTQDECKLHFLR [I39K],0.564 ± 0.081
3,GREWTEQETLLLLEALEMYKDDWNKVSEHVGSRTQDECGLHFLR [I39G],-0.004 ± 0.064
4,GREWTEQETLLLLEALEMYKDDWNKVSEHVGSRTQDECALHFLR [I39A],0.178 ± 0.066
5,GREWTEQETLLLLEALEMYKDDWNKVSEHVGSRTQDECWLHFLR [I39W],-0.333 ± 0.15
6,GREWTEQETLLLLEALEMYKDDWNKVSEHVGSRTQDECELHFLR [I39E],0.513 ± 0.082
7,GREWTEQETLLLLEALEMYKDDWNKVSEHVGSRTQDECSLHFLR [I39S],0.32 ± 0.047
8,GREWTEQETLLLLEALEMYKDDWNKVSEHVGSRTQDECYLHFLR [I39Y],0.117 ± 0.074
9,GREWTEQETLLLLEALEMYKDDWNKVSEHVGSRTQDECFLHFLR [I39F],-0.043 ± 0.065
10,GREWTEQETLLLLEALEMYKDDWNKVSEHVGSRTQDECRLHFLR [I39R],0.456 ± 0.049
11,GREWTEQETLLLLEALEMYKDDWNKVSEHVGSRTQDECMLHFLR [I39M],0.217 ± 0.08
12,GREWTEQETLLLLEALEMYKDDWNKVSEHVGSRTQDECHLHFLR [I39H],0.456 ± 0.053
13,GREWTEQETLLLLEALEMYKDDWNKVSEHVGSRTQDECPLHFLR [I39P],-0.378 ± 0.085
14,GREWTEQETLLLLEALEMYKDDWNKVSEHVGSRTQDECNLHFLR [I39N],0.35 ± 0.076
15,GREWTEQETLLLLEALEMYKDDWNKVSEHVGSRTQDECLLHFLR [I39L],0.142 ± 0.051
16,GREWTEQETLLLLEALEMYKDDWNKVSEHVGSKTQDECILHFLR [R33K],0.037 ± 0.08
17,GREWTEQETLLLLEALEMYKDDWNKVSEHVGSVTQDECILHFLR [R33V],-0.387 ± 0.09
18,GREWTEQETLLLLEALEMYKDDWNKVSEHVGSSTQDECILHFLR [R33S],-0.678 ± 0.099
19,GREWTEQETLLLLEALEMYKDDWNKVSEHVGSCTQDECILHFLR [R33C],-0.944 ± 0.17
20,GREWTEQETLLLLEALEMYKDDWNKVSEHVGSMTQDECILHFLR [R33M],-0.585 ± 0.13

row,Variant,abundance fitness
1,GREWTEQETLLLLEALEMYKDDWNKVSEHVGSYTQDECILHFLR [R33Y],-0.744 ± 0.15
2,GREWTEQETLLLLEALEMYKDDWNKVSEHVGSHTQDECILHFLR [R33H],-0.251 ± 0.087
3,GREWTEQETLLLLEALEMYKDDWNKVSEHVGSWTQDECILHFLR [R33W],-0.404 ± 0.087
4,GREWTEQETLLLLEALEMYKDDWNKVSEHVGSETQDECILHFLR [R33E],-0.319 ± 0.15
5,GREWTEQETLLLLEALEMYKDDWNKVSEHVGSGTQDECILHFLR [R33G],-0.569 ± 0.094
6,GREWTEQETLLLLEALEMYKDDWNKVSEHVGSPTQDECILHFLR [R33P],-0.653 ± 0.13
7,GREWTEQETLLLLEALEMYKDDWNKVSEHVGSNTQDECILHFLR [R33N],-0.884 ± 0.18
8,GREWTEQETLLLLEALEMYKDDWNKVSEHVGSQTQDECILHFLR [R33Q],-1.01 ± 0.44
9,GREWTEQETLLLLEALEMYKDDWNKVSEHVGSATQDECILHFLR [R33A],-0.285 ± 0.084
10,GREWTEQETLLLLEALEMYKDDWNKVSEHVGSLTQDECILHFLR [R33L],-0.832 ± 0.15
11,GREWTEQETLLLLEALEMYKDDWNKVSEHVGSTTQDECILHFLR [R33T],-0.464 ± 0.13
12,GREWTEQETLLLLEALEMYKDDWNKVSEHVGSITQDECILHFLR [R33I],-0.885 ± 0.14
13,GREWTEQETLLLLEALEMYKDDWNKVSEHVGSRTQDACILHFLR [E37A],-0.283 ± 0.1
14,GREWTEQETLLLLEALEMYKDDWNKVSEHVGSRTQDPCILHFLR [E37P],-0.846 ± 0.18
15,GREWTEQETLLLLEALEMYKDDWNKVSEHVGSRTQDMCILHFLR [E37M],-0.4 ± 0.23
16,GREWTEQETLLLLEALEMYKDDWNKVSEHVGSRTQDRCILHFLR [E37R],-0.63 ± 0.15
17,GREWTEQETLLLLEALEMYKDDWNKVSEHVGSRTQDLCILHFLR [E37L],-1.08 ± 0.24
18,GREWTEQETLLLLEALEMYKDDWNKVSEHVGSRTQDKCILHFLR [E37K],-0.546 ± 0.23
